These results are taken from patent publication US20170158761A1 (EWHA UNIVERSITY INDUSTRY COLLABORATION FOUNDATION, published 2017).

Where no end group is shown, it is not given here.

The target in the assay is T1, Δ-dTCTP (FL deleted dimer TCTP) (Pan troglodytes (Chimpanzee), UniProt A5A6K2 1-172, disulfide bridge between the C-terminal cysteines (Cys172) of the two chains).
T1 construct: also called A-dTCTP; dimer form of FL domain-deleted TCTP
T1 sequence: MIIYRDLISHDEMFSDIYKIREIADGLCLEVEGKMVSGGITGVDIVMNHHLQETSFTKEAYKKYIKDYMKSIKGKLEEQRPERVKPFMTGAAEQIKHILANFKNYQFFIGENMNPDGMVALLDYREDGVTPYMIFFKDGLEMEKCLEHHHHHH
Description: ELISA: biotinylated dTBP2 (0.01 to 10 µM) on streptavidin plate, TCTP protein at 0.2 µg/ml, anti-HRF rabbit antibody detection. Here is the method: To investigate the affinity to dTBP2 of f-TCTP, Δ-dTCTP, and Del-N11dTCTP of the present invention, biotin was conjugated to the COOH-terminus of dTBP2 known to bind to HRF, followed by purification. The purified protein was immobilized in the plastic well coated with streptavidin, to which f-TCTP, Δ-dTCTP, and Del-N11dTCTP were added. Then, the binding strength of each protein was investigated.
Particularly, 50 μL of the biotinylated dTBTP2 dissolved in a buffer (TBS [25 mM Tris, 150 mM NaCl, pH 7.2], 0.1% BSA, 0.05% Tween-20) at different concentrations of […] was added to Reacti-Bind Streptavidin Coated Polystyrene Plates (PIERCE), followed by reaction at room temperature for 2 hours. The plate was washed with a washing buffer three times. Each of f-TCTP, Δ-dTCTP, and Del-N11dTCTP was dissolved in TBS at the concentration of 0.2 μg/ml. 60 μl of the mixture was added to each well of the plate, followed by reaction for 1 hour. The plate was washed with a washing buffer three times. 100 μl of anti-HRF rabbit antibody (Bio-Rad) diluted in a buffer (1:2000) was added to each well of the plate, which stood at room temperature for 30 minutes. […] Color development was measured at 450 nm and 570 nm using an ELISA reader (Bio-Rad), and affinity was determined by the difference.
In general terms: In an ELISA, binding on a coated surface is turned into a signal by an enzyme label.

Turning to WYVYPSM-biotin (also called biotinylated dTBTP2) [biotinylated dTBP2 (dTCTP binding peptide 2)], the binding result is listed as “binds”.
